Values joined by “and” are separate entries in the source; they are usually repeats but may differ in a detail not shown here. Identical values can stand only once.
Assays:
[1] = tested on: human leukocyte elastase (HLE); experiment: Anti-elastase activity: inhibition of human leukocyte elastase cleavage of MeO-Suc-Ala-Ala-Pro-Val-p-nitroanilide (A410); assay type: biochemical
Method: For the assay, extracts were diluted in 50 mM Tris pH8, 50 mM NaCl. […] Assays were initiated by the addition of 0.1 5 μg HLE and were incubated for 15 min at 28° C., terminated by the addition of 100 μl of 8N acetic acid and the absorbance at 410 nm determined (Beatty et al., supra). Protein concentrations were determined as described in Bradford, Anal. Biochem. (1976) 72:248-253. From the amount of human leukocyte elastase activity observed, given the protein concentration of the yeast extracts and the amount of the enzyme added, the percentage of the yeast soluble protein which is α1 -antitrypsin can be calculated. It is assumed that there is 100 percent human leukocyte elastase activity, a 1:1 complex between human leukocyte elastase and α1 -antitrypsin whose molecular weights are 29 kD and 42 kD, respectively.

[2] = tested on: human leukocyte elastase (HLE); experiment: Oxidation resistance: N-chlorosuccinimide (NCS) treatment, then anti-HLE activity assay; assay type: biochemical
Method: To determine the anti-elastase activities of the mutant (Val) or wild-type (Met) α1 -antitrypsin, appropriate yeast extracts were incubated with human leukocyte elastase (HLE) and a synthetic peptide substrate the cleavage of which can be assayed at 410 nm (Beatty et al., supra). For the assay, extracts were diluted in 50 mM Tris pH8, 50 mM NaCl. […] Assays were initiated by the addition of 0.1 5 μg HLE and were incubated for 15 min at 28° C., terminated by the addition of 100 μl of 8N acetic acid and the absorbance at 410 nm determined (Beatty et al., supra).
For this purpose, aliquots of the extracts were diluted in 50 mM Tris pH8, 50 mM NaCl, incubated at room temperature for 5 min in 100 μl of 50 mM Tris pH8, with the indicated amount of NCS, and assayed for anti-HLE activity.

## α1 AT: Control human α1-antitrypsin added in μg amounts to the elastase assay
[1]; Table 1, 0.2 μg control human α1 AT, no NCS
  Elastase Activity (%): 67%
[1]; Table 1, 1.0 μg control human α1 AT plus 3.8 μl Cl/l yeast extract, no NCS
  Elastase Activity (%): 12%
[1]; Table 1, 1.0 μg control human α1 AT, no NCS
  Elastase Activity (%): 5% and 0%
[1]; Table 2, 0.5 μg control human α1 AT, NCS -
  Elastase Activity (%): 44%
[1]; Table 2, 1.0 μg control human α1 AT, NCS -
  Elastase Activity (%): 10%
[2]; Table 1, 1.0 μg control human α1 AT plus 3.8 μl Cl/l yeast extract, NCS (10 mM) 10 μl
  Elastase Activity (%): 84%
[2]; Table 1, 1.0 μg control human α1 AT, NCS (10 mM) 10 μl
  Elastase Activity (%): 91%
[2]; Table 2, 0.5 μg control human α1 AT, NCS (10 mM) +
  Elastase Activity (%): 96%
